Assay: yeast display, Sf9 membrane polyspecificity reagent, FACS + sequencing; frameworks hold sequencing errors
Summary of the method: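 In a synthetic yeast display library (Saccharomyces cerevisiae BJ5465), nanobody expression was induced with galactose for 36–48 hours. FACS gates were set low and high (top ~1%) using anti-HA fluorescence for expression and streptavidin fluorescence for binding of the Sf9 membrane reagent. Each polyreactivity label is drawn from the gate of origin.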

Sequence	polyreactivity (PSR sort gate)
QVQLVESGGGLVQAGGSLRLSCAASGSTFSTYAMGWYRQAPGKERELVARITRSDTGTYYADSVKGRFTISRDNAKNTVYLQMNSLKPEDTAVYYCAADGWYDDSGWYYGYDYWGQGTQVTVSS	low polyreactivity
QVQLVESGGGLVQAGGSLRLSCAASGSTFSVYAMGWYRQAPGKERELVARITGGSTYADSVKGRFTISRDNAKNTVYLQMNSLKPEDTAVYFCNAYRYWSPGYDYWGQGTQVTVSS	low polyreactivity
QVQLVESGGGLVQAGGSLRLSCAASGSTFSWNTMGWYRQAPGKERELVADIRTSGGGTYYADSVKGRFTISRDNAKNSVYLQMNSLKPEDTAVYYCNGDPKWEMVSWGQGTQVTVSS	low polyreactivity
QVQLVESGGGLVQAGGSLRLSCAASGSTFSWYAMGWYRQAPGKERELVASISWRGGSTYYADSVKGRFTISRDNAKNTVSLQMNSLKPEDTAVYYCAADYDWKLFHEPPAVYDYDYWGQGTQVTVSS	low polyreactivity
QVQLVESGGGLVQAGGSLRLSCAASGSTFSYNAMGWYRQAPGKERELVAAIDANGGSTYYADSVKGRFTISRDNAKNTVYVQMNSLKPEDTAVYYCAAAGYWYYYVPNDSWGQGTQVTVSS	low polyreactivity
QVQLVESGGGLVQAGGSLRLSCAASGSTFSYNAMGWYRQAPGKERELVAAIRWGGGSTYYADSVKGRFTISCDNAKNTVYLQMNSLKPEDTAVYYCARYGYRRVGSRWAEFDYWGQGTQVTVSS	high polyreactivity
QVQLVESGGGLVQAGGSLRLSCAASGSTFSYNAMGWYRQAPGKERELVAAISRGGITNYADSVKGRFTISRDNAKNTVYLQMNSLKPEDTAVYYCAVRHVWPWQGYDYWGQGTQVTVSS	low polyreactivity
QVQLVESGGGLVQAGGSLRLSCAASGSTFSYNAMGWYRQAPGKERELVAAITSSGSSTYYADSVKGRFTISRYNAKNTVYLQMNSLKPEDTAVYYCNAEVLFVAGQVQRNSGDYWGQGTQVTVSS	low polyreactivity
QVQLVESGGGLVQAGGSLRLSCAASGSTFSYNAMGWYRQAPGKERELVASISTSGGSTYYADSVKGRFTISRDNAKNTVYLQMNSLKPEDTAVYYCNAPTSDMYSDFDYWGQGTQVTVSS	low polyreactivity
QVQLVESGGGLVQAGGSLRLSCAASGSTFSYNTMGWYRQAPGKERELVASNTRSGGSTNYADSVKGRFTISRDNAKNTVYLQMNSLKPEDTAVYYCAKDYISVWNVRASDYYWYDYWGQGTQVTVSS	low polyreactivity
QVQLVESGGGLVQAGGSLRLSCAASGSTFSYYAMGWYRQAPGKERELVAAITRSGGRTYYADSVKGRFTISRDNAKNTVYLQMNSLKPEDTAVYYCAALSVGTRRDYWGQGTQVTVSS	low polyreactivity
QVQLVESGGGLVQAGGSLRLSCAASGSTFSYYAMGWYRQAPGKERELVASITWNGARTYYADSVKGRFTISRDNAKNTVYLQMNSLKPEDTAVYYCADRHKYAFWTAFGNYWGQGTQVTVSS	high polyreactivity
QVQLVESGGGLVQAGGSLRLSCAASGSTFSYYAMGWYRQAPGKERELVAVISRGGSTNYADSVKGRFTISRDNAKNTVYLQMNSLKPEDTAVYYCAAYVLPWRGRGQTEYGYWGQGTQVTVSS	low polyreactivity
QVQLVESGGGLVQAGGSLRLSCAASGSTFSYYAMGWYRQAPVKERELVAAITSGGGRTYYADSVKGRFTISRDNAKNTVYLQMNSLKPEDTAVYYCNALSTLYNGYDYWGQGTQVTVSS	high polyreactivity
QVQLVESGGGLVQAGGSLRLSCAASGSTFSYYTMGWYRQAPGKERELVAAISKSGGITYYADSVKGRFTISRDNAKNTVYLQMNSLKPEDTAVYYCAADGGYYDDDYWGQGTQVTVSS	high polyreactivity
QVQLVESGGGLVQAGGSLRLSCAASGSTFSYYTMPWYRQAPGKERELVAAISRSGANTHYADSVKGRFTISRDNAKITVYLQMNSMKPEDTAVYYCAKVHSGRHYDYWGQGTQVTVSS	high polyreactivity
QVQLVESGGGLVQAGGSLRLSCAASGSTFTANAMGWYRQAPGKERELVAAISDTTGNTYYADSVKGRFTISRDNAKNTVYLQMNSLKPEDTAVYYCAARQFKSDIVVSLVDSWGQGTHVTVSS	low polyreactivity
QVQLVESGGGLVQAGGSLRLSCAASGSTFTGNAMGWYRPAPGKERELVADITWSDGSTDYADSVKGRFTISRDNAKNTVYLQMNSLKPDDTAVYYCNARITYYVGTAWYDYWGQGTQVTVSS	low polyreactivity
QVQLVESGGGLVQAGGSLRLSCAASGSTFTGYAMGWYRPAPGKEREFVAAISRSGGSTYYADSVKGRFTISRDNAKNTVYLQMNSLKPEDTAVYYCNARGFTRYTVGRNYWGQGTQVTVSS	high polyreactivity
QVQLVESGGGLVQAGGSLRLSCAASGSTFTGYAMGWYRQAPGKEMELVAAISISGGRTVYADSVKGRFTISRDNAKNTVYLQMNSLKREDTAVYYCNARYTRYTLRYYYWGQGTQVTVSS	high polyreactivity
QVQLVESGGGLVQAGGSLRLSCAASGSTFTGYAMGWYRQAPGKERELVAAISISGGRTFYADSVKGRFTISRDNAKNTVYLQKNSLKPEDTAVSYCAASLRGSKYSFDYWGQGTQVTVSS	high polyreactivity
QVQLVESGGGLVQAGGSLRLSCAASGSTFTGYDMGWYRQAPGKERELVAAISISGGRTFYADSVKGRFTISRDNAKNTVYLQMNSLKPEDTAVYYCAAYQRGSKYSFDYWGQGTQVTVSS	high polyreactivity

Sequence	polyreactivity (PSR sort gate)
QVQLVESGGGLVQAGGSLRLSCAASGSTFTGYTMGWYRQAPGKERELVAAISRRGTSTYYADSVKGRFTISRDNAKNSVYLQMNSLKPEDTAVYYCADYQGQKGYDYWGQGTQVTVSS	high polyreactivity
QVQLVESGGGLVQAGGSLRLSCAASGSTFTGYTMGWYRQAPGKERELVAAISRRGTSTYYADSVKGRFTISRDNAKNTVYLQMNSLKPEDTAVYYCAAYQGQKGYDYWGQGTQVTVSS	high polyreactivity
QVQLVESGGGLVQAGGSLRLSCAASGSTFTGYVLGWYRQAPGKERELVAAITSSVDGTYYADSVKGRFTISRDIAKNTVYLQMNSLKPEDTAVYYCAADLWKGVYPSYDYWGQGTQVTVSS	low polyreactivity
QVQLVESGGGLVQAGGSLRLSCAASGSTFTGYVMGWYRQAPGKERELVAAITSSVDGTYYADSVKGRFTISRDNAKNTVYLQMNSLKPEDTAVYDCAADLWKGVYPSYDYWGQGTQVTVSS	low polyreactivity
QVQLVESGGGLVQAGGSLRLSCAASGSTFTINVMGWYRQAPGKERELVAAIHGGGRPNYADSVKGRFTISRDNAKKTVYLQMNSLKPEDTAVYYCAADGLSNVRQMDYWGQGTQVTVSS	low polyreactivity
QVQLVESGGGLVQAGGSLRLSCAASGSTFTKYDMGWYRQAPGKERELVAAIRSGGDTNYADSVKGRFTISRDNAKNTVYLQMNSLKPEDTAVYYCAAERGPTNHTSYPWYEYHYWGQGTQVTVSS	low polyreactivity
QVQLVESGGGLVQAGGSLRLSCAASGSTFTLNAMGWYRQAPGKECELVADISWSSGRTYYADSVKGRFTISRDNAKNTVYLHMNSLKPEDTAVYYCATDDFWNVKFYAYYPEFDYWGQGTQVTVSS	low polyreactivity
QVQLVESGGGLVQAGGSLRLSCAASGSTFTLNAMGWYRQAPGKERELVARISSGGGSTYYADSVNGRFTISRDNAKNTVYLQMNSLKPEDTAVYYCNAGNYRDKSYYWGQGTQVTVSS	low polyreactivity
QVQLVESGGGLVQAGGSLRLSCAASGSTFTLYAMGWYRQAPGKERELVAAISWSGDTTYYADSVKGRFTISRDNAKNTVYLQMNSLKPEDTAVYYCAADWYTSYYYEHESWGQGTQVTVSS	high polyreactivity
QVQLVESGGGLVQAGGSLRLSCAASGSTFTLYAMGWYRQAPGKERELVAAITWRGGSTFYADSVKGRFTISRDNAKNTVYLQMNSLKPEDTAVYYCAADYYSYVVGRIDYWGQGTQVTVSS	high polyreactivity
QVQLVESGGGLVQAGGSLRLSCAASGSTFTLYAMGWYRQAPGKERELVATITGSGGSTNYADSVKGRFTISRDNAKNTVDLQMNSLKPEDTAVYYCAKRVQQSTWYGYGIGYEYWGQGTQVTVSS	high polyreactivity
QVQLVESGGGLVQAGGSLRLSCAASGSTFTNNGMGWYRQAPGKERELVATISWDGDSTYYADSVKGRFTISRDNAKNTVYLQMISQKPEDTAVYYCAADEWGSDSALNFEYWGQGTQVTVSS	low polyreactivity
QVQLVESGGGLVQAGGSLRLSCAASGSTFTNYAMGWYRQAPGKERELVAAISSSGGRTYYADSVKGRFTISRDNAKNTVYLQMNSLKPEDTAVYYCARVVRPSVGDYWGQGTQVTVSS	high polyreactivity
QVQLVESGGGLVQAGGSLRLSCAASGSTFTNYAMGWYRQAPGKERELVAGISRSGGTTYYADSVKGRFTISRDNVKNTVYLQMNSLKPEDTAVYYCAAVGYFGGYRYDYWGQGTQVTVSS	high polyreactivity
QVQLVESGGGLVQAGGSLRLSCAASGSTFTPNAMGWYRQAPGKERELVAAINWSDSSTYYADSVKGRFTISRDNAKNTVYLQMNSLKPEDTAVYFCAAAAQYGQLQVPVYYWGQGTQVTVSS	low polyreactivity
QVQLVESGGGLVQAGGSLRLSCAASGSTFTPNAMGWYRQAPGKERELVAASRYTGVGTYYADSVKGRFTISRDNAKNTVYLQMNSPKPEDTAVYYCNRVSRYYNYDYWGQGTQVTVSS	high polyreactivity
QVQLVESGGGLVQAGGSLRLSCAASGSTFTPNVMGWSRQAPGKERELVAAINSSGGSTFYADSVKGRFTISRDNAKNTVYLQMNSLKPEDTAVYYCAASWHTPTVYDEYYYWGQGTQVTVSS	low polyreactivity
QVQLVESGGGLVQAGGSLRLSCAASGSTFTPYAMGWNRQAPGKERELVAAIRRGGSTNYADSVKGRFTISRDNEKNTVYLQMNSLKPEDTAVYYCAATKRRFVKFDYWGQGTQVTVSS	low polyreactivity
QVQLVESGGGLVQAGGSLRLSCAASGSTFTQYVMGWYRQAPGKERELVAAISDSGSTYYADSVKGRFTISRDNAKNTVYLQMNSLKPEDTAVYYCNADDVDFYYGYGYLEYDYWGQGTQVTVSS	low polyreactivity
QVQLVESGGGLVQAGGSLRLSCAASGSTFTRNAMGWYRQAPGKERELVAAISSSGGRTYYADSVKGRFTISRDNAKNTVYLQMNSLKPEDTAVYYCAAGIRTSAGYDYWGQGTQVTVSS	high polyreactivity
QVQLVESGGGLVQAGGSLRLSCAASGSTFTRNAMGWYRQAPGKERELVAVISSRGGRTYYADSVKGRFTISRDNAKNTVYLQMNSLKPEDTAVYYCAARTWVLYTWRSYYEYYYWGQGTQVTVSS	high polyreactivity

Reference: the nanobody polyreactivity screen of Harvey et al. (2022)
